Measurements: US20220119451A1 (published 2022)
Positions of bridges follow the written chain, without caps; N, C: chain ends. No end group written: not given here.

B1: CLP003 peptide (peptide)
peptide: WHFSYNWRWLPP
modifications: not fully specified
notes: 12-mer from phage display
B2: CLP2C14 (peptide)
peptide: CHRSYYTWNLNC
modifications: disulfide 1-12
notes: Cyclic variant of CLP002
B3: CLP2C21 (peptide)
peptide: CHRSYYCWNLNT
modifications: disulfide 1-7
notes: Cyclic variant of CLP002
B4: CLP001 peptide (peptide)
peptide: HYPFRPHANQAS
modifications: not fully specified
notes: 12-mer from phage display
B5: CLP004 peptide (peptide)
peptide: DYHDPSLPTLRK
modifications: not fully specified
notes: 12-mer from phage display
B6: CLP002 peptide (peptide)
peptide: WHRSYYTWNLNT
modifications: not fully specified
notes: 12-mer from phage display
B7: CLP2TR3 (peptide)
peptide: WHRSYYTWN
notes: Truncated form of CLP002 (9 residues)

What was measured:
[1] = biological target: mouse PD-L1 protein (G&P Biosciences, cat #FCL3502B) (mouse) (UniProt Q9EP73); assay: ELISA, blocking of mouse PD-1 binding to mouse PD-L1 protein, 10 µM
Chain of mouse PD-L1 protein (G&P Biosciences, cat #FCL3502B) (mouse) (Q9EP73 19-239 limits assumed): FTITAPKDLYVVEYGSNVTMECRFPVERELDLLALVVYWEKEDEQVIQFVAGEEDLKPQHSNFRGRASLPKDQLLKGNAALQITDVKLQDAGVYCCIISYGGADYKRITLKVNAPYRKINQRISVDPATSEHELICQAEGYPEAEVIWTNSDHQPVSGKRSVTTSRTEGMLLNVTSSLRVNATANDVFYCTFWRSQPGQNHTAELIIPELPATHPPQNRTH

[2] = biological target: T1, human PD-L1 on DU-145 cancer cells (human, UniProt Q9NZQ7 19-290); assay: blocking of PD-1 binding to DU-145 cells
T1 construct: whole, on cells; Endogenous PD-L1 of a PD-L1-positive human cancer cell line
T1 sequence (Q9NZQ7 19-290): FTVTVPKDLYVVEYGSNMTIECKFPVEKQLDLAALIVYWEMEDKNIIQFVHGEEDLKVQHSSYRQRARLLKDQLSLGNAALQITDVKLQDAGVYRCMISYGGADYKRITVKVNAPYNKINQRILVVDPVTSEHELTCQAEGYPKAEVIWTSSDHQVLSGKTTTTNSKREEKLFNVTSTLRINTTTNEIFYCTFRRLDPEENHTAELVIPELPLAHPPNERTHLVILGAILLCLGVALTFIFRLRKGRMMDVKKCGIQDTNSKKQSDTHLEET

[3] = biological target: T2, mouse PD-L1 on 4T1 cancer cells (mouse, UniProt Q9EP73 19-290); assay: blocking of mouse PD-1 binding to 4T1 cells
T2 construct: whole, on cells; also called mouse cancer cell line 4T1
T2 sequence (Q9EP73 19-290): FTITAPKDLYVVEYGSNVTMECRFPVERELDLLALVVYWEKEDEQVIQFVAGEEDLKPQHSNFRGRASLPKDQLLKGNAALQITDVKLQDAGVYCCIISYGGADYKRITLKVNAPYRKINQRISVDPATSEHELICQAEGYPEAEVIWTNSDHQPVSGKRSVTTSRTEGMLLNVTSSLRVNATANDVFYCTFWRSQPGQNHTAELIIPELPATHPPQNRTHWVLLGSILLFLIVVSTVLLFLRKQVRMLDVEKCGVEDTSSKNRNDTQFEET

[4] = biological target: T3, mouse PD-L1 protein (G&P Biosciences, cat #FCL3502B) (mouse, UniProt Q9EP73 19-239, limits assumed); assay: ELISA, blocking of mouse PD-1 binding to coated mouse PD-L1 protein
T3 construct: Bought protein; construct not described; also called mPD-L1 protein
T3 sequence (Q9EP73 19-239 limits assumed): as the sequence (Q9EP73 19-239 limits assumed) above
Experimental: (§1) Various concentrations of peptides were loaded into the wells and incubated for 1 hour at room temperature. […] Streptavidin-HRP (R&D systems) and chromogenic substrate were added into the wells. OD₄₅₀ was then recorded and referenced to OD₅₄₀.

[5] = biological target: T4, recombinant human PD-L1 extracellular domain (ECD) protein (cat #FCL0784B, G&P Biosciences) (human, UniProt Q9NZQ7 19-238); assay: blocking of the human CD80/PD-L1 interaction
T4 construct: extracellular domain; Bought protein; also called hPD-L1 protein; human PD-L1 protein
T4 sequence (Q9NZQ7 19-238): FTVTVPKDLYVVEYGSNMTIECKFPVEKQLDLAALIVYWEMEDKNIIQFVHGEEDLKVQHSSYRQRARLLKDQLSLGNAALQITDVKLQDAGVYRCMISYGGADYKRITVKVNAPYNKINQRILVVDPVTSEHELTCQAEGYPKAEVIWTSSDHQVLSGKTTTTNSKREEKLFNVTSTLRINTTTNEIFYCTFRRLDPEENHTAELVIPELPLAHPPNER

[6] = biological target: T4, recombinant human PD-L1 extracellular …; assay: SPR, human PD-L1 ECD immobilised on CM5 chip
Experimental: (§2) Evaluation of Binding Kinetics and Affinity By Surface Plasmon Resonance (SPR). […] PD-L1 protein was diluted to 10 μg/mL with sodium acetate buffer (pH 5.0, GE Healthcare, PA) and covalently coated onto a CM5 sensor chip (CM Dextran Sensor Chip, Biosensing Instrument) using the standard Amine Coupling Kit (GE Healthcare, PA). Approximately 6500 RU of PD-L1 protein were immobilized onto the chip. A second channel was used as a reference. HBS-EP+ buffer (GE Healthcare) was employed at a flow rate of 60 μL/min. […] The CM5 sensor chip was regenerated with 10 mM NaOH for 20 seconds. The results were analyzed using the software of Bi data analysis software.
The PD-L1 protein was immobilized on a CM5 golden chip by the direct amine coupling method. […] In a recent study, scientists constructed several chimeric antigen receptor (CAR) T cells with different affinities to ICAM-1.

[7] = biological target: T4, recombinant human PD-L1 extracellular …; assay: blocking of the human CD80/PD-L1 interaction, 10 µM
[8] = biological target: T3, mouse PD-L1 protein (G&P Biosciences, …); assay: blocking of the mouse PD-1/PD-L1 interaction (text value, differs from Table 3); text of paragraph 79, not Table 3
Experimental: as §1

[9] = biological target: T4, recombinant human PD-L1 extracellular …; assay: ELISA, blocking of PD-1 binding to coated human PD-L1 protein
Experimental: as §1

bovine serum albumin [10] = biological target: T5, bovine serum albumin (bovine, UniProt P02769 25-607); assay: SPR, albumin (BSA) immobilised, peptide series injected
T5 construct: Specificity control in SPR; also called BSA
T5 sequence (P02769 25-607 limits assumed): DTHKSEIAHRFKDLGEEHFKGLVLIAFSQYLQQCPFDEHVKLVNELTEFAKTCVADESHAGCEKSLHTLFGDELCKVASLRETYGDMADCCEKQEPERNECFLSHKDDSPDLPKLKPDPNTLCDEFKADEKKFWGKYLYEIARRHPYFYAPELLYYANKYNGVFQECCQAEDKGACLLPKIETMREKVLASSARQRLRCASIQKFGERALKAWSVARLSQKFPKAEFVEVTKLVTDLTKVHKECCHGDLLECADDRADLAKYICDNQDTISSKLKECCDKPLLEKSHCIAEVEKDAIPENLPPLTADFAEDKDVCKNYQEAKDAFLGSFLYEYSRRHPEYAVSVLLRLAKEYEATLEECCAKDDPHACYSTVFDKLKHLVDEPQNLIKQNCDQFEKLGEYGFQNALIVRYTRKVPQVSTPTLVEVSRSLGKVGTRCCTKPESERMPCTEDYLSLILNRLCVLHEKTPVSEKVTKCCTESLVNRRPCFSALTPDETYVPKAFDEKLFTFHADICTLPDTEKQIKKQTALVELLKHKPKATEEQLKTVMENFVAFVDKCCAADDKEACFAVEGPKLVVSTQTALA
Experimental: as §2
Nonspecific binding of the peptides against bovine serum albumin (BSA) using SPR was measured. […] MCF-7 human cancer cells are PD-L1 deficient and used as a negative control in this study. […] Results are represented as the mean±SD (n=3).

[11] = biological target: T6, recombinant human PD-L1 protein (Acro Biosystems, cat #EP-101 assay pair) (human, UniProt Q9NZQ7 19-238); assay: competitive SPR, peptide preincubated with human PD-L1, injected over immobilised PD-1
T6 construct: Bought protein; construct not described; also called hPD-L1; human PD-L1 (AcroBiosystems, cat #EP-101)
T6 sequence (Q9NZQ7 19-238 limits assumed): as the sequence (Q9NZQ7 19-238) above
Experimental: BI-4500A SPR and a CM-5 sensor chip pre-functionalized with streptavidin (Biosensing Instrument Inc., Tempe, Ariz.) were employed for the SPR analysis. […] Data was analyzed with SPR Data Analysis Version 3.8.4 (Biosensing Instrument Inc., Tempe, Ariz.).
(§3) In this Example, various properties of the peptides of SEQ ID NO:5, SEQ ID NO:6 and SEQ ID NO:7 were evaluated. The procedures for generating these values are described above in the beginning of the Examples section.

[12] = biological target: T6, recombinant human PD-L1 protein (Acro …); assay: ELISA, blocking of biotinylated human PD-1 binding to coated human PD-L1
Experimental: (§4) Unbound protein was removed by washing twice with PBS (pH 7.2-7.4), 2% BSA was added for 1.5 h at 37° C. to block the plate. Specific concentrations of the peptides were dispensed into the appropriate wells and incubated for 2 h at 37° C. […] This was followed by the addition of streptavidin-HRP and chromogenic substrate (R&D systems). The color reaction was terminated with 2N H₂SO₄, absorbance was recorded at OD450 and referenced to OD540.

[13] = biological target: T4, recombinant human PD-L1 extracellular …; assay: PD1/PD-L1 blocking assay of Table 5 (format not stated)
[14] = biological target: T6, recombinant human PD-L1 protein (Acro …); assay: ELISA, blocking of biotinylated human PD-1 binding to coated human PD-L1, 10 µM
Experimental: as §4, §3

[15] = biological target: T7, mouse PD-L1 (Acro Biosystems, cat #PD1-M5220) (mouse, UniProt Q9EP73 19-238); assay: ELISA, blocking of biotinylated mouse PD-1 binding to coated mouse PD-L1
T7 construct: Bought protein; construct not described; also called mPD-L1
T7 sequence (Q9EP73 19-238 limits assumed): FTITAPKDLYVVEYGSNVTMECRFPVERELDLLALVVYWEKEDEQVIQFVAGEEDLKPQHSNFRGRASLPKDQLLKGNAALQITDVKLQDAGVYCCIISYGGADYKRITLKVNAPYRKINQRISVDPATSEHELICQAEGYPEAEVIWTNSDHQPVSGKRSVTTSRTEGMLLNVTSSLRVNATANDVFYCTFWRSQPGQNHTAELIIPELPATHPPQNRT
Experimental: as §4, §3

[16] = biological target: T4, recombinant human PD-L1 extracellular …; assay: SPR, PD-L1 immobilised
Experimental: as §2

[17] = biological target: T4, recombinant human PD-L1 extracellular …; assay: PD1/PD-L1 blocking assay of Table 5 (format not stated), 10 µM
bovine serum albumin [18] = biological target: T5, bovine serum albumin; assay: SPR, BSA immobilised

Molecule	Blocking Efficiency (%) [2] [%]	IC50 [2] [nM]	Blocking Efficiency (%) [3] [%]	IC50 [3] [nM]	Blocking Efficiency (%) [4] [%]	IC50 [4] [nM]	Kd [6] [nM]	koff [6] [s⁻¹]	kon [6] [M⁻¹ s⁻¹]	blocking efficiency at 10 µM [7] [%]	Blocking Efficiency (%) [9] [%]	IC50 [9] [nM]	binding result (bovine serum albumin [10])	% Blocking efficiency at 10 µM (ELISA) hPD-L1 [14] [%]	Kd [16] [nM]	% Blocking efficiency at 10 µM [17] [%]	Kd (bovine serum albumin [18]) [nM]	also measured
anti-mouse PD-L1 antibody (BioXcell, 10F.9G2)																		blocking efficiency at 10 µM [1]: 92%
B1	56	3050	50	1000	46	2260	117	0.00162	22600	~48	60	2220	no binding					IC50 [5]: 1620 nM; IC50 [8]: 1960 nM
B2														75	2.78	75	408	IC50 [11]: 119 nM; IC50 [12]: 180 nM; IC50 [13]: 5 nM; IC50 [15]: 550 nM
B3														85.9	124	78	1240	IC50 [11]: 143 nM; IC50 [12]: 440 nM; IC50 [13]: 6 nM; IC50 [15]: 460 nM
B4	0		35	910	34	2430	534	0.00281	5190	~17	0		no binding					
B5	60	200	34	730	48	1910	544	0.00275	5140	~27	52	1170	no binding					
B6	80	1430	61	2440	68	1910	366	0.00145	4520	~48	85	2170	no binding					IC50 [5]: 2450 nM; IC50 [8]: 1510 nM
B7														80	258	80	2050	
